Source: paper doi:10.1101/2024.04.30.591854

Target: RBK21 variable region (residues 148-299) (Plasmodium falciparum (strain Lek174))
Assay: SPR

KIR2DL1 as used in the SPR experiments with RBK21, sequence (P43626 22-348): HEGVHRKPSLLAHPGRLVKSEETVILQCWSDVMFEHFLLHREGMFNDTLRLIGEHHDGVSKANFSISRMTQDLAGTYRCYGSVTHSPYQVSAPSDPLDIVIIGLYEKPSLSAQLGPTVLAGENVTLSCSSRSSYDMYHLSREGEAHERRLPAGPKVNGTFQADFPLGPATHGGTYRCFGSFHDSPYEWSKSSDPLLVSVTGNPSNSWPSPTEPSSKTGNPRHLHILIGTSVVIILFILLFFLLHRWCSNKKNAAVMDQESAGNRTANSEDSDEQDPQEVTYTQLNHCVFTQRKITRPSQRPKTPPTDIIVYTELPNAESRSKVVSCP
KIR2DS1 as used in the SPR experiment with RBK21, sequence (Q14954 22-304): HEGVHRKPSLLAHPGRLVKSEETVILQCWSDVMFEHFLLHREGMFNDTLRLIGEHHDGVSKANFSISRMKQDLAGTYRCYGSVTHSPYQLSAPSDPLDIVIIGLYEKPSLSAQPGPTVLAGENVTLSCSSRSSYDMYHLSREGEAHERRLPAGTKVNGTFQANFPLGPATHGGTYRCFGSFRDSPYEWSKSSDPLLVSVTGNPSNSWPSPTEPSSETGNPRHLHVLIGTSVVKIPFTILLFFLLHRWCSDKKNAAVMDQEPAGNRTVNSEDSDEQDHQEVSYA

Substance	Kd [nM]
KIR2DL1 as used in the SPR experiments with RBK21 (from UniProt P43626 22-348) (receptor)	450
KIR2DS1 as used in the SPR experiment with RBK21 (from UniProt Q14954 22-304) (receptor)	2000
